Publication PMC10786891, “Massively parallel profiling of RNA-targeting CRISPR-Cas13d”
Where a chain is given by its changes, count along the chain named. Names and notes keep the numbering of the source.

T1: EsCas13d, nuclease-dead (Eubacterium siraeum, UniProt B0MS50, R295A;H300A;R849A;H854A)
T1 sequence: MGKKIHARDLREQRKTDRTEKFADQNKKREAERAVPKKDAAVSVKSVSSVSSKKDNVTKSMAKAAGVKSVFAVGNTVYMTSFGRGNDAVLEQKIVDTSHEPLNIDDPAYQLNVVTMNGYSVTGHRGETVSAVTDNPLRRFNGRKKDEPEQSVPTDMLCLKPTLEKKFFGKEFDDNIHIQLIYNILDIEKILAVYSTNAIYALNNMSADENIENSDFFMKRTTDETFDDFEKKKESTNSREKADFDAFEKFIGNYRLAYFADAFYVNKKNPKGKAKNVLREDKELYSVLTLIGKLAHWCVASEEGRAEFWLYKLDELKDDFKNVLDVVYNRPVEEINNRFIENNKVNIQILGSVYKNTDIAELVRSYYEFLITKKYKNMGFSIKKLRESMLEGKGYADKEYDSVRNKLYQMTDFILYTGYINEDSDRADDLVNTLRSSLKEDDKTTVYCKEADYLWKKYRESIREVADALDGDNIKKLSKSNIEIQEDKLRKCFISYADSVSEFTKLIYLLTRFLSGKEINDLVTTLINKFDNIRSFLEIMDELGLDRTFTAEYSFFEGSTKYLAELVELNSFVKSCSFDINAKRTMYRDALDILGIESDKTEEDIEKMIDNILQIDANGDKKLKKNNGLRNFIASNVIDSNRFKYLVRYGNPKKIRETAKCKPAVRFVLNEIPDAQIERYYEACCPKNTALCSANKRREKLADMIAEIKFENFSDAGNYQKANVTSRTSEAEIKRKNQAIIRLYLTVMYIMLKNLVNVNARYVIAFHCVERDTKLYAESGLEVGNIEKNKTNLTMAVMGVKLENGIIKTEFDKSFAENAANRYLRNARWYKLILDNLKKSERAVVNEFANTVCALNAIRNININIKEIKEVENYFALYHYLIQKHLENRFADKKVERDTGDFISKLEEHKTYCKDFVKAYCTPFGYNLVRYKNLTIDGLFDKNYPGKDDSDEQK

B1: target 1 insA 3' of 11 (mixed)
RNA 1: CACCCGUGCAAAAAUGCAGGGGUCUAAAACUGAGCGGAUAACCUCUCUAUGG
RNA 2: GGGAAUGGAUCCACAUCUACGAAUUCGUACCAUAGAGAGGUAUAUCCGCUCACCGAGAUCGGAAGAGCACACGU
B2: target 1 C2A,U3A (mixed)
RNA 1: B1 RNA 1
RNA 2: GGGAAUGGAUCCACAUCUACGAAUUCGUACCAUAGAGAGGUUAUCCGCAAACCGAGAUCGGAAGAGCACACGU
B3: target 1 C7A,A14G (mixed)
RNA 1: B1 RNA 1
RNA 2: B2 RNA 2 with A38G, C45A, A49U, A50C
B4: target 1 C4U,C7G (mixed)
RNA 1: B1 RNA 1
RNA 2: B2 RNA 2 with C45G, C48U, A49U, A50C
B5: target 1 insU 3' of 22,insG 3' of 2 (mixed)
RNA 1: B1 RNA 1
RNA 2: GGGAAUGGAUCCACAUCUACGAAUUCGUACUCAUAGAGAGGUUAUCCGCUCGACCGAGAUCGGAAGAGCACACGU
B6: target 1 insU 3' of 20,insU 3' of 18 (mixed)
RNA 1: B1 RNA 1
RNA 2: GGGAAUGGAUCCACAUCUACGAAUUCGUACCAUUAUGAGAGGUUAUCCGCUCACCGAGAUCGGAAGAGCACACGU
B7: target 1 C7U,A9U (mixed)
RNA 1: B1 RNA 1
RNA 2: B2 RNA 2 with A43U, C45U, A49U, A50C
B8: target 1 G15A,G17A (mixed)
RNA 1: B1 RNA 1
RNA 2: B2 RNA 2 with G35A, G37A, A49U, A50C
B9: target 1 insA 3' of 17,insA 3' of 2 (mixed)
RNA 1: B1 RNA 1
RNA 2: B5 RNA 2 with U31C, C32A, A33U, U34A, A35G, G36A, G52A
B10: target 1 insG 3' of 7,insU 3' of 1 (mixed)
RNA 1: B1 RNA 1
RNA 2: GGGAAUGGAUCCACAUCUACGAAUUCGUACCAUAGAGAGGUUAUCGCGCUCAUCCGAGAUCGGAAGAGCACACGU
B11: target 1 insU 3' of 22,insC 3' of 9 (mixed)
RNA 1: B1 RNA 1
RNA 2: B5 RNA 2 with U45C, C46U, G48C, C49G, U50C, C51U, G52C
B12: target 1 U3C,G5C (mixed)
RNA 1: B1 RNA 1
RNA 2: B2 RNA 2 with G47C, A49C, A50C
B13: target 1 insA 3' of 15,insC 3' of 3 (mixed)
RNA 1: B1 RNA 1
RNA 2: B10 RNA 2 with G39A, U41G, A43U, U44A, C45U, G46C, A52C, U53A
B14: target 1 insA 3' of 17,insC 3' of 1 (mixed)
RNA 1: B1 RNA 1
RNA 2: B5 RNA 2 with U31C, C32A, A33U, U34A, A35G, G36A, G52A, A53C
B15: target 1 A1U,U19A (mixed)
RNA 1: B1 RNA 1
RNA 2: B2 RNA 2 with U33A, A49U, A50C, A51U
B16: target 1 insA 3' of 17,insU 3' of 1 (mixed)
RNA 1: B1 RNA 1
RNA 2: B10 RNA 2 with G37A, A38G, G39A, U41G, A43U, U44A, C45U, G46C
B17: target 1 C4G,C7A (mixed)
RNA 1: B1 RNA 1
RNA 2: B2 RNA 2 with C45A, C48G, A49U, A50C
B18: target 1 A9G,C21A (mixed)
RNA 1: B1 RNA 1
RNA 2: B2 RNA 2 with C31A, A43G, A49U, A50C
B19: target 1 C6U,G15C (mixed)
RNA 1: B1 RNA 1
RNA 2: B2 RNA 2 with G37C, C46U, A49U, A50C
B20: target 1 insU 3' of 21,insA 3' of 19 (mixed)
RNA 1: B1 RNA 1
RNA 2: B6 RNA 2 with A32U, U33A, U36A
B21: target 1 A9U,G17A (mixed)
RNA 1: B1 RNA 1
RNA 2: B2 RNA 2 with G35A, A43U, A49U, A50C
B22: target 1 insU 3' of 20,insC 3' of 10 (mixed)
RNA 1: B1 RNA 1
RNA 2: B6 RNA 2 with U36G, G37A, A38G, G39A, A40G, G42U, U44C
B23: target 1 insG 3' of 18,insA 3' of 8 (mixed)
RNA 1: B1 RNA 1
RNA 2: GGGAAUGGAUCCACAUCUACGAAUUCGUACCAUAGGAGAGGUUAUACCGCUCACCGAGAUCGGAAGAGCACACGU
B24: target 1 insU 3' of 14,insA 3' of 3 (mixed)
RNA 1: B1 RNA 1
RNA 2: B10 RNA 2 with G39U, U41G, A43U, U44A, C45U, G46C, C51A, A52C, U53A
B25: target 1 U10G,G13A (mixed)
RNA 1: B1 RNA 1
RNA 2: B2 RNA 2 with G39A, U42G, A49U, A50C
B26: target 1 insG 3' of 20,insA 3' of 11 (mixed)
RNA 1: B1 RNA 1
RNA 2: B23 RNA 2 with U33G, A34U, G35A, U43A, A44U, U45A, A46U
B27: target 1 insA 3' of 17,insG 3' of 1 (mixed)
RNA 1: B1 RNA 1
RNA 2: B23 RNA 2 with G36A, A46C, C48G, G49C, C50U, U51C, C52A, A53G
B28: target 1 insG 3' of 16,insC 3' of 3 (mixed)
RNA 1: B1 RNA 1
RNA 2: B23 RNA 2 with G36A, A37G, A46C, C48G, G49C, C50U, U51C
B29: target 1 insC 3' of 9,insU 3' of 4 (mixed)
RNA 1: B1 RNA 1
RNA 2: B10 RNA 2 with U44C, C45U, G46C, C51U, A52C, U53A
B30: target 1 C4G,A18C (mixed)
RNA 1: B1 RNA 1
RNA 2: B2 RNA 2 with A34C, C48G, A49U, A50C

molecular target: T1, EsCas13d, nuclease-dead; assay: crRNA (strand 1, pre-loaded); Mg2+; 40 mM Tris-HCl pH 7.5, 150 mM NaCl, 6 mM MgCl2, 1 mM DTT, 0.1% Tween-20, 0.2 mg/ml BSA; 25 C; 10 min per concentration, then washed; settings: tags: His6-TwinStrep-SUMO cleaved; N-terminal SNAP kept (SNAP-Surface 488); label: 3' end held by stalled T7 RNA polymerase

Binder	Kd
B1	16.4 ± 0.8 nM
B2	10 ± 0.8 nM
B3	15.6 ± 0.6 nM
B4	10.4 ± 0.4 nM
B5	29.1 ± 1.8 nM
B6	33 ± 5 nM
B7	6.3 ± 0.4 nM
B8	80 ± 15 nM
B9	13.8 ± 0.7 nM
B10	7.3 ± 0.5 nM
B11	36 ± 7 nM
B12	6.3 ± 0.7 nM
B13	10.1 ± 1.3 nM
B14	12.2 ± 1.2 nM
B15	29 ± 4 nM
B16	18.5 ± 1.9 nM
B17	7.1 ± 0.4 nM
B18	36 ± 4 nM
B19	62 ± 7 nM
B20	55 ± 10 nM
B21	41 ± 5 nM
B22	30 ± 4 nM
B23	56 ± 5 nM
B24	56 ± 14 nM
B25	42 ± 15 nM
B26	75 ± 33 nM
B27	17.6 ± 1.7 nM
B28	12.4 ± 0.6 nM
B29	9.2 ± 0.6 nM
B30	44 ± 7 nM
